What was measured:
CD147 on cells (human) = CD147 on cells (human) (UniProt P35613); experiment: two-colour FACS of activated lymphocytes, CBL against CD25
[1] = molecular target: Hu-CD147IgG2 fusion protein (human); experiment: BIAcore, surface Hu rCD147-IgG 791 RU

Sequence of ABX-CBL antibody (HC): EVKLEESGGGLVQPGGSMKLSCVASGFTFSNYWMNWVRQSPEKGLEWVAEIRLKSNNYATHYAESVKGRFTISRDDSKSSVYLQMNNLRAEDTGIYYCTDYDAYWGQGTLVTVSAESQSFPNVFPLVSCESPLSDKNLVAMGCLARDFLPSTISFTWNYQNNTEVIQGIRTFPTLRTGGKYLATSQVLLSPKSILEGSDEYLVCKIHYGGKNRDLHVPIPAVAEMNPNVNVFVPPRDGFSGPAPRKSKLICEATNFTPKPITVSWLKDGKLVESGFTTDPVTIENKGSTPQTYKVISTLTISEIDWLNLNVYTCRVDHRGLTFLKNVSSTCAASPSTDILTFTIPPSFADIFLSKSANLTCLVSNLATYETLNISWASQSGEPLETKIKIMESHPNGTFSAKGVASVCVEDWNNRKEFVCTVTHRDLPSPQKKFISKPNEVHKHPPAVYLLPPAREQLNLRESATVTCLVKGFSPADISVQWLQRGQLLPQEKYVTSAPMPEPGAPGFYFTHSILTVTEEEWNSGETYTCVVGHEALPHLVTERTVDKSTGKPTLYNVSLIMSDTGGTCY
Sequence of ABX-CBL antibody (LC): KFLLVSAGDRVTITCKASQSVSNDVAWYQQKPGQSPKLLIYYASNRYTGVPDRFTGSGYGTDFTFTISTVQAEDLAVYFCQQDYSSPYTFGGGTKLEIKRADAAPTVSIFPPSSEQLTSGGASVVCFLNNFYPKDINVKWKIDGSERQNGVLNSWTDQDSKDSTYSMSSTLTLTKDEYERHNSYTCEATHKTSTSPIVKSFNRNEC
Sequence of CD147 on cells (human) (P35613 other isoform, or with tags, fused parts or gaps limits assumed): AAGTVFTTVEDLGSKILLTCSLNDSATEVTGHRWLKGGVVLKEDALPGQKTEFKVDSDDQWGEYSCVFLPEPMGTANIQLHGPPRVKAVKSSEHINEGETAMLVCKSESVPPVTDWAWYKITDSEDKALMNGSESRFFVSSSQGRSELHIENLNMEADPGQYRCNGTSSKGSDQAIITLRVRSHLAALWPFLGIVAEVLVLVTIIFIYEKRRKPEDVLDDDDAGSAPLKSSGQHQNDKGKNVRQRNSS

% of cells in quadrant CBL negative / CD25 negative (CD147 on cells (human)): 29.6% | % of cells in quadrant CBL negative / CD25 positive (CD147 on cells (human)): 1.6% | % of cells in quadrant CBL positive / CD25 negative (CD147 on cells (human)): 18.9% | % of cells in quadrant CBL positive / CD25 positive (CD147 on cells (human)): 50% | Ka [1]: 1.39e+09 M⁻¹ | Kd [1]: 0.518 nM | koff [1]: 0.000376 s⁻¹ | kon [1]: 725000 M⁻¹ s⁻¹
Substance: ABX-CBL antibody
